Results as given in patent US20090098568A1.

Biological target: cyclophilin A, N-terminally His- and FLAG-tagged fusion protein (UniProt P62937)
Experiment: SPR (Biacore S51); 1 uM cyclosporin A injected for 1.5 minutes over Cyph immobilized (approx. 3,400 RU) on an NTA sensor chip

UniProt P62937, sequence (P62937 other isoform, or with tags, fused parts or gaps limits assumed): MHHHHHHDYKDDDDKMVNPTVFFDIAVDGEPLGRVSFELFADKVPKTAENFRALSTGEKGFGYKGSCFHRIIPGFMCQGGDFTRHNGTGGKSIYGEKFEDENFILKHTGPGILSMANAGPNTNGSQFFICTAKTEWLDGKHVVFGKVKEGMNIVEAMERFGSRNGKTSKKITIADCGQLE

Cyclosporin A (peptide)
response (RU): 43 RU
